Assay results taken from PMC3338861.

Target: purified BfpD assembly ATPase (enteropathogenic Escherichia coli (EPEC))

purified BfpD assembly ATPase (enzyme) was tested, and the stoichiometry N was 6.
